assay: soluble on expression in E. coli; label from the status in PepcDB or PDB records

Sequence	soluble on expression in E. coli
MSLKTVEDNRTSLTDQVLKGTLIQDKLYESNKYYPIYGSSELGKDDPFNPAIALNKHNANKKAFLLGAGGSTDLINAIELASQYDKLKGKKLTFIISPQWFTNHGLTNQNFDARMSQTQINQMFQQKNMSTELKRRYAQRLLQFPHVHNKEYLKSYAKNPKETKDSYISGFKENQLIKIEAIKSLFAMDKSPLEHVKPATKPDASWDEMKQKAVEIGKADTTSNKFGIRDQYWKLIQESKRKVRRDYEFNVNSPEFQDLELLVKTMRAAGADVQYVSIPSNGVWYDHIGIDKERRQAVYKKIHSTVVDNGGKIYDMTDKDYEKYVISDAVHIGWKGWVYMDEQIAKHMKGEPQPEVDKPKNEGHHHHHH	soluble
MDLPVMPPVKPMLAKSVAKIPPDMQYEAKWDGFRAIVFRDGTEVELGSRTGKPLTRYFPELVEALRDRLPERCVIDGEIVIARDGRLDFDALTERIHPAESRVRMLAEKTPASFVAFDLLALADDSLLDTPLTERRALLESALSGVTAPVHVAPATTDREVAEQWFEQYEGAGLDGVIAKPLTLRYRQDERAMFKVKHERTADVVVAGYRLHKSGPVVGSLLLGLYDDRGALQHVGVSAAFPMKRRAELVEELEPLRMEDAAGHPWAAWSNEAAHETARLPGAPSRWSGKKDLSWVPLRPERVAEVAYDHMENGARFRHTARFRRWRPDRTPESCTYAQLEEPVSYDLTEILGSRGLEHHHHHH	soluble
MGSDKIHHHHHHMRRADRLFQIVQILRHRRLTTAKQLAERLEVSSRTIYRDIQDLCLSGIPIEGEAGVGYLLRQEVNVPPLMFNEQELEAIQVGMRMVQAQGGHELASAAKQAMIKVEAVLPERLKAYQSLMFAPDFYSEGQLFSFLDLLRRTSREREYILLSYQDGKQSSSERQVRPLALYYWQGVWTLLAWCELRGDFRNFRVDRIVGVLPLGSHFQHTPGQEMPDYIAMMQAQYGEC	not soluble
FDIALTGREGKKIGAAFIVGDSEEVLKRSHQIILNPYEGHEEAHRNILDRRNWESIKEFALLDGVFVIDETGIVRAAGRYLDVDGKNIDIEKGLGGRHVSAAAISRDTVAISVTVSESGGVLRVYKDAKETICMESLQPASRYV	not soluble
MGSDKIHHHHHHMSDDELLFAEEDPSDNVGEGIGRAPWVILVVDDDTEVHALSRLLLSEIEFKGRRVAMYSAYSAAEARAMLGRIDDVAVILLDVVMETDDAGLKLVRTIRETMNNRDVRIILRTGQPGQAPEREVIETYDINDYKSKTELTAQKLHTALVAALRAYDDIMALVLSRQGLRKILDAAASLYRQRSMELFAAGVLTQINALLGGDRDGILCVQSRKEQADEDDPAGAMVVLAASGAYERLVGKRVDELPESPVISLIREAAASRTSRHGSHASALYMPTGDGRETVVFLHAAEPLKAQDRALMQLFCDNISAGFDTVCEIDDLRRENVRLRARLGEAKAP	not soluble
MSRSQLTILTNICLIEDLETQRVVMQYRAPENNRWSGYAFPGGHVENDEAFAESVIREIYEETGLTIQNPQLVGIKNWPLDTGGRYIVICYKATEFSGTLQSSEEGEVSWVQKDQIPNLNLAYDMLPLMEMMEAPDKSEFFYPRRTEDDWEKKIF	soluble
MAYVGDDLIDWPVMEKVGLSVAVADAHPLLIPRADYVTRIAGGRGAVREVCDLLLLAQGKLDEAKGQSI	not soluble
MTAQPVETIKIDSEAGELGFERLGVLIKEYKPEKVVLGLPKHMNGDEGIRAEASRDYGTKLANEFGLEVAYQDERLTTAQAEKVLIDGGVRRKERKKSIDKLAAVLILQNYLDAHALKL	not soluble
MRGSHHHHHHTDPALRAASTFTSDTLPADHKAAIRQMKHALRAQLGDVQQIFNQLSDDIATRVAEINALKAQGDAVWPVLSYADIKAGHVTAEQREQIKRRGCAVIKGHFPREQALGWDQSMLDYLDRNRFDEVYKGPGDNFFGTLSASRPEIYPIYWSQAQMQARQSEEMANAQSFLNRLWTFESDGKQWFNPDVSVIYPDRIRRRPPGTTSKGLGAHTDSGALERWLLPAYQRVFANVFNGNLAQYDPWHAAHRTEVEEYTVDNTTKCSVFRTFQGWTALSDMLPGQGLLHVVPIPEAMAYVLLRPLLDDVPEDELCGVAPGRVLPVSEQWHPLLIEALTSIPKLEAGDSVWWHCDVIHSVAPVENQQGWGNVMYIPAAPMCEKNLAYAHKVKAALEKGASPGDFPREDYETNWEGRFTLADLNIHGKRALGMDVGLCGR	soluble
MGSLVHVKEATVITPSDQTPSSVLSLSALDSQLFLRFTIEYLLVYPPVSDPEYSLSGRLKSALSRALVPYFPFSGRVREKPDGGGGLEVNCRGQGALFLEAVSDILTCLDFQKPPRHVTSWRKLLSLHVIDVLAGAPPLVVQLTWLRDGGAALAVGVNHCVSDGIGSAEFLTLFAELSKDSLSQTELKRKHLWDRQLLMPSPIRDSLSHPEFNRVPDLCGFVNRFNAERLVPTSVVFERQKLNELKKLASRLGEFNSKHTSFEVLSAHVWRSWARSLNLPSNQVLKLLFSVNIRDRVKPSLPSGFYGNAFVVGCAQTTVKDLTEKGLSYATMLVKQAKERVGDEYVRSVVEAVSKERASPDSVGVLILSQWSRLGLEKLDFGLGKPVHVGSVCCDRYCLLLPIPEQNDAVKVMVAVPSSSVDTYENLVTSPNA	not soluble
MGSDKIHHHHHHMAQIIAVHSFRGGTGKSNLIANMAATMALQGQRVGIIDTDIQSPGIHVIFGINENKMERTLNDYLWGYCNIKDAAYDVTEALAIEQGNTSTVKGSLHLVPCSIKASEIARVLREGYDVVRLNDGFQEFIRSLKLDYLLIDTHPGLNEETLLSIGISNVLVILLRPDHQDFQGTAVTVDVARKLKVPKMLLVINKVLPSLNFLDLQQQVEKIYNAPVVGILPLSEDMVQLASKGLFSLRYPQHPISQTIKGITNQIASLVVSH	not soluble
MKLTPKELDKLMLHYAGELAKKRKEKGIKLNYVEAVALISAHIMEEARAGKKTAAELMQEGRTLLKPDDVMDGVASMIHEVGIEAMFPDGTKLVTVHTPIEANGKLVPGELFLKNEDITINEGKKAVSVKVKNVGDRPVQIGSHFHFFEVNRCLDFDREKTFGKRLDIAAGTAVRFEPGEEKSVELIDIGGNRRIFGFNALVDRQADNESKKIALHRAKERGFHGAKSDDNYVKTIKE	soluble
MAHHHHHHMSIYIQLTHDLSGTVTAVTIGDWILGILKEKNIQEYEVFFKKFLHIYQKQDKDSECNNRSEIFSLLLSASDFVFETLVETKKNNKIKVIIDNKESVKSYNEFYKEVEEYFVILISILQLEFKSVEELNNATNNFIKAIKNYNEFPELRLKILQLLYNSFNVNFSFRFPTFIAILQFCSQNNIFHNMLPYIKYIDDWIKEWNISTREKRHIYLIISQELKKLKKYEESYEHLKKHIYYYDNEHKDILNHPNSINASIELIVDAININNNIYFHEIINLHAIQNLQFIPQHQPLFDLLLIFYKYTINEFLVFKNKHGSDFFNKYNIDIQTCESKIYLLSIISLFNDHKVQNIQFISKQLNISVVQIENILVAAIGSGVIDAKIDQINQTVHMKTTILRNFDDENWKQLNNQITKYINNVQKILELTKHANK	not soluble
MGSDKIHHHHHHMENFVRNSKLNIEKEIKRIEQQPIALLERIKQIIDVIQTSLTLLKRAVAEYQFQNPEEEIQFFKVWKPQISGLLMFYIRLYQIEKNRVGKSLSAQCKYLKMELENIQKSFLNNSFYDYYRAGQTELDNQYFIRENYDILSDVHCHLLDRDSSFTTLHDSSVAMILANSHLIEYVSDEIDSLSDKLHLKFTSIVDSKLLQWTDSKVALVEFIYAIYAGKCFNNGNTSLKDIAFCCEILFNIEIGDFYRIFLEIRNRKKSRTQFLDKLKDKIQKMMEELDR	not soluble
MLEVIATCLEDVKRIESAGGKRIELISSYTEGGLTPSYAFIKKAVEVVSIPIHVMIRPHAKSFTYTEEEIEMMKEDIIVAQKLGAAGVVLGVLNERNEVDEEKLADLLSVVDGINVTYHRAIDDIKNPVEAMSTLKKFHKVTHVLTSGGQGNIVENIPVLTEMQKVSEGQIQLVAGAGVTKENIKRLLDETGITQAHVGTAVREGKSCFSEIDPNLVQELVEIIKLEHHHHHH	soluble
MAKPSDSADICQAPVQTAQAPLPKDSALDDLIGYAMRRAQLKLFQNLIGRLSAHDLRPAQFSALAIIEQTPGLMQADLAKALAIEPPQVVPLLNKLEERALAVRVRCKPDKRSYGIFLSKTGETLLRELKQIAVDSDLDSTSALDNQERNDLLRLLKKVYQS	not soluble
SIYQVAIKSLPQDWLWCETWCDDESKQRAKTIDLCNNPKTKEPKLEAAARIVPEWVTYDTEIRTLLDHLENKKKSANSVHDEL	soluble
VNEIVVNPNATLDWQLALRQAAGKTDLARDMLQMLLDFLPEVRNKVEEQLVGENPEGLVDLIHKLHGSCGYSGVPRMKNLCQLIEQQLRSGTKEEDLEPELLELLDEMDNVAREASKILG	soluble
MKFTELTVKEFENFVQNPSLESHYFQVKENIATRESDGFQVVLLGVKDDDNRVIAASLFSKIPTMGSYVYYSNRGPVMDYSDLGLVDFYLKELDKYLHQHQCLYVKLDPYWLYQVYDKDINPLTEKNDALVNLFKSHGYDHHGFTTQYDSSSQVRWMGVLDLEGKTPASLRKEFDSQRKRNINKAINYGVKVRFLSKDEFGLFLDLYRETEARTGFASKTDDYFYNFIEHYGDKVLVPLAYIDLNEYIQHLQESLNDKENRRDDMMAKENKTDKQLKKIAELDKQIDHDKKELLQASELRQTDGEILNLASGVYFANAYEVNYFSGGSSEKYNQYMGPYAMHWHMINYCFDNGYDRYNFYGLSGDFTENSEDYGVYRFKRGFNVRIEELIGDFYKPINKVKYWLFNTLDRIRNKLKK	not soluble
MTTPTFDINAAIQALREGKDLTGKDGILTPLIKQLTEAALAAELDGHLASTEGANRKNGKTTKTVKSPLGNFELNTPRDRAGTFEPQLVKKHQTQLTDEMERKIIGLFSLGSSYQDIRAHIEDMYGMSVSNGTVNAITDKLLPELQAWRERELEPLYPVIWLDAIHYKIKENGRFISKAVYTILALNVEGKKELLGLYLSDNEGAHHWLSVLTDLYNRGVKDILIACVDGLKGFPEAIATIYPQTEVQLCVIHQIRNSMKYVASKHQKAFMADLKCVYKAATLNAAEMALDELETKWGDKYPVVIKSWRNKWALLSVYFKYPDYVRTAIYTTNAVEAVHRQFRKLTKTKGGFANENSLLKLLYAGILKASERWTHPIQNWNLTLSQLSIHFEGRLENHIDL	not soluble
MRCPGCGAAIQFDDPKKPGYIPREVFEKRLEEGKEILCQRCFRMKHYGKLEPVEFDWDFKNQLKSYLGGFDVVVWVIDIFDFEGTYREDIAEILKGKRVIYVINKIDLLPRAVTVKEIKEWVKKRIKTKNTDDIRIVSAEKNFGLTSLVKYLSRLTDKALVVGVTNVGKSSLLNKICTHENTISPFPGTTLGILKRKVKEANLYLYDTPGIMTSDRILDLLDPECQKRVLPREELSRKTFKPDNGRTIFMGGLCRFDIHFETEKNPIFLLFSSKEVTFHETRRERADELMRNRLGDLLIPPCSKTKFENFKWKRETFTLKEGEELAVAGLGWMSVRRGPFTVEVTVPDSVKLVVREALVNPKRLEHHHHHH	soluble
MNQIWLKVCAASDMQPGTIRRVNRVGAAPLAVYRVGDQFYATEDTCTHGIASLSEGTLDGDVIECPFHGGAFNVCTGMPASSPCTVPLGVFEVEVKEGEVYVAGEKKLEHHHHHH	soluble
MGSDKIHHHHHHMTKPPTLRPRFWETVPLDRMTPSEWEALCDGCGKCCLNKIEFEDTGEVAFTRIACRLLDGDSCRCSNYEIRRQFVPDCVQLSPATLPKIVYWMPRTCAYRLLHEGKSLPGWHYLLTGDRNSVHDAGASVQGWTVPEFEVAEEDWEDHIIEETP	not soluble
MSLDGKPTIIIKYGKIDEEAMKSQRYNFDDLMVQLRENSIDRVADVSFAILEPSGKLTIVKKENSGEHRQLEMPLIIDGFIQTENLSRISKDRKWLLESLQKHGYTNPSDISFCSFTDGEIYIDEKDGHRTKGIITITTDPNSSSVDKLAAALEHHHHHH	soluble
